Experimental data reported in the nanobody polyreactivity screen of Harvey et al. (2022).

Assay: yeast display, Sf9 membrane polyspecificity reagent, FACS + sequencing; frameworks hold sequencing errors
In short: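 Galactose-induced (36–48 hours) yeast carrying a synthetic nanobody display library were exposed to 10% biotinylated, detergent-solubilized Sf9 membrane reagent at 4 °C for 1 hour. FACS followed streptavidin microbead enrichment, using low and high (top ~1%) gates for expression (anti-HA) and reagent binding (streptavidin). Colony PCR, MiSeq 2 × 250 sequencing and CDR-length filtering followed. Labels for polyreactivity reflect the gate of origin.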
In the case of “QVQLVESGGGLVQAGGSLRLSCAASGSTFNKYAMGWYRPPPGKERELVAAISWTGGHTYYADSVKGRFTFSRDNAKNTVYLQMNSLKPEDTAVYYCNTVNSRPKYNYWGQGTQVTVSS”, the “polyreactivity (PSR sort gate)” value is reported as “high polyreactivity”. For “QVQLVESGGGLVQAGGSLRLSCAASGSTFSSNTMGWYRQAPGKEREMVAAITRRGGSTYYADSVKGRFTISRDNAKNTVYLQMNCLKPEDTAVYYCAARAYGGYGYWGQGTQVPVSS”, the “polyreactivity (PSR sort gate)” value was “low polyreactivity”. In the case of “QVQLVESGGRLVQAGGRLRLSCDASGYIISSYVMGWYRQAHGKDKELVAAINRRGGSTYYADSVKGRFTISRDNAKNTVYLQMNSLKPEDTAVYYCAADGLSGYGSGGYYGMGYWGQGTQVTVSS”, the “polyreactivity (PSR sort gate)” value is reported as “high polyreactivity”. For “QVQLVESGGGLVQAGGSLRLSCAASGRILYPYAMGWYRQAPGKERESVAAITFRGGNTYYADSVKGRFTISRDQAKNTVYLQMNSLKPEDTAVYYCAAPQRWTYAYDYWGQGTQVTVSS”, the “polyreactivity (PSR sort gate)” value was “high polyreactivity”. For “QVQLVESGGGLFHAGGSLRLICAASGTTFKYYAMGSYRQAPAIEREFVAAISTRTGNTYYADSVKGRFTISRDNAKNTVYLQMNSLKPEDTAVYYCAARPRQGRGYDFYYWGQGTQVTVSS”, the “polyreactivity (PSR sort gate)” value was “high polyreactivity”. With “QVQLVESGGGLVQAGGSLRLSCAASGRTFRYNDMGWYRQAPGKERELVAAITYTADRTYYADSVKGRFTISRDNAKNTVYLQMNSLKPEDTAVYYCNAAYGRRVTFRPYYWGQGTQVTVSS” the “polyreactivity (PSR sort gate)” value was “high polyreactivity”. With “QVQLVESGGGLVQAGGSLRLSCAASGSTFDYYAMGWNRQAPGKERDLVAASTSGSSTYYADSVKGRITISRDNAQNTVYLEMNSLKPEDTAVYYCAARSVYGSSFLSYGYWGQGTQLTVSS” the “polyreactivity (PSR sort gate)” value was “high polyreactivity”. With “QVQLVESGGGLVQAGGSLRLSCAASGSTFDGYAMGWYRQAPGKERELVAAISYSGSSTYYADSVKGRFTISGDNAKNTVYLQMNSLKPEDTAVVYCAVDDTHPFGPDGGGDYWGQGTQVTVSS” the “polyreactivity (PSR sort gate)” value was “low polyreactivity”. For “QVQLVESGGGLVQAGGSLRLSCAASGNIFTGNAMGWYRQAPGKERELVAAISSGGGSTYYADSVKGRFTISRDNAKNTVYLQMNSLKPEDTAVYYCAASRVRYSYGYPYYYWGQGTQVTVSS”, the “polyreactivity (PSR sort gate)” value was “high polyreactivity”. In the case of “QDHLVESGGGLVQAGGSLRLSCAASGRIFFGYAMGWYRQATGKERELVATISYNDTSTYYADSVKGRFTISRDNAKNTVYLQMNCLKPEDTAVNYCSKSLGAPASDVYWGQGTQVTVSS”, the “polyreactivity (PSR sort gate)” value is reported as “low polyreactivity”. In the case of “QVQLVESGGGLVQAGGSLRLSCAASGRIFWYNALGWYRQAPGKEREVVAAISWRGSRTYYADSVKGRFTISRDNAKNTVYLQMNSLKPEETAVYYCAAVIKWTKDDYWGQGTQVTVSS”, the “polyreactivity (PSR sort gate)” value is reported as “high polyreactivity”. With “QVQLVESGGGLVQAGGSLRLSCAASGSTFVINAMGWYRQAPGKERELVAAISYSGDSTYADSVKGRFTISRDNEKNTVYLQMNSLKPEDTAVYYCAKYQYDYYTYDYWGQGTQVTVSS” the “polyreactivity (PSR sort gate)” value was “low polyreactivity”. With “QVELVESGGGLVQAGGSRRLSCAASGSTFYAYAMGWYRQAPGKERELVAAISASGDSTYYADFVKGRFTISRDNAKNTVYLQMNSLTPEDTAVYYCAAEVYYRPQDYYTYPDYYWGQGTQVTVSS” the “polyreactivity (PSR sort gate)” value was “high polyreactivity”. In the case of “QVQLVESGGGLVQAGGSLRLSCAASGSTFAIYAMGWDRGAPGKEREVVAAISWRTGSTYYADSVKGRFTISRDNAKNTVYLQMNSLKPEDTAVYYCAAEFWFFAGWAYEYWGHGTQVTVSS”, the “polyreactivity (PSR sort gate)” value is reported as “high polyreactivity”. With “QVQLVESGGGLVQAGGRLRLSCAASGRTSFDYSMGWYRQAPGKDRELVAAITSTGGSTYYADSVKGRFTISRDNAKYTVYLQMNSLKPEDTAVYYCAAVWFTHWGQYQVLEVLYDYWGQGTQVTVSS” the “polyreactivity (PSR sort gate)” value was “low polyreactivity”. In the case of “QVQLVESGGGLVQAGGSLRLSCAASGSIFTHYAMGWYRQAPGKERELVAAITWSGGSTYYADSVKGRFTISRDNAKYTVYLQMNSLKPEDTAVYYCNVAWVGVSLVYGPFEYDYWGQGTQVTVSS”, the “polyreactivity (PSR sort gate)” value is reported as “high polyreactivity”. In the case of “QVQLVESGGGLVQAGGSLRLSCAASGRTFKYNTMGWYRQAPGKEREFVAAINWSGGSTYSAASVKGRFTISRDNAKNTVYLQMNSLKPEDTAVYYCAARRVYLGEYDYWGQGTQVTVSS”, the “polyreactivity (PSR sort gate)” value is reported as “high polyreactivity”. With “QVQLVETGGGLVQAGGSLRLSCAASGRIFGRYAMGWSRQAPGKERELVASISRGGSTNYADSVKGRFTISRDNAKNTVYLQMNSLKPEDTAVYYCAKSGGVGGADRVGSWGQGTQVTVSS” the “polyreactivity (PSR sort gate)” value was “low polyreactivity”. With “QVQLVESGGGLVQAGGSLRLSCAASGRTFYKNTMGWYREAPGKEREMVATISQRGGSTYYADSVKGRFTISRDNAKNTVFLQMNSLKPEDTAVYYCYARHYYIWWRSPTRTAMNYWGQGTQVTVSS” the “polyreactivity (PSR sort gate)” value was “high polyreactivity”. In the case of “QVQLVESGGGLVQAGGSLRLSCAASGRTIRYYAMGWYRQAPGKERELVAAITVTVTSTFYADSVKGRFTISRDDAKNTVYLQMNSLKPEDTAVYYCAKVDRQSPGQYYYWGQGSQVTVSS”, the “polyreactivity (PSR sort gate)” value is reported as “low polyreactivity”. In the case of “QVQLVESGGGLVQAGGSLRLSCAASGRTFGVNAMGWYRQAPGKERELVARIRVSGGRTYYADSVKGRFTISRDNAKNTVYLQMNSLKPEDTAVYYCNAGYTYNRVIWPYYYWGQGTQVTVSS”, the “polyreactivity (PSR sort gate)” value is reported as “high polyreactivity”. With “QVQLVESVGGLVQAGGSLRLSCAASGRTLPWYAMGWYRQAPGKERELVAVIRWIGGRTYYADSVKGRFTISRDNAKNTVYLQMNSLKPEDTAVYYCAARPHYYYGWYYYWGQGTQVTVSS” the “polyreactivity (PSR sort gate)” value was “high polyreactivity”. In the case of “QVLLVESGGGLVQAAGSLRLSSAASGRIFASYPLGWYRQAPGKERELVAAISKSGGRTYYADSVKGRFTISRDNAKNTVYVQMNSLKPVDTAVYDCAAFFWTRSGTPNFDYWGQGTQVTVSS”, the “polyreactivity (PSR sort gate)” value is reported as “high polyreactivity”. For “QVQLVESGGGLVQAGGSLRLSCAASGSTFGPYTMGWYRQAAGKERELVAAITGGGDSTYYADSVKGRFTISRDNAKNTVYLQMNSLKPEDTAVYYCAAKKPTTRMGYWGQGTQVTVSS”, the “polyreactivity (PSR sort gate)” value was “low polyreactivity”. For “QVQLVESGGGLVQAGCSLRLSCAASGGTFRSNAMGWYRKAPGKERELVAASTNYADSVKGRFTISRDNAKNTVYLQMNSLKPEDTAVYYCAAGPTDSQTGMDYWGQGTQVTVSS”, the “polyreactivity (PSR sort gate)” value was “low polyreactivity”. For “QVQLVESGGGLVHAGGSLRLSCAASGLIFRAYAMGWYRQAPGKERELVAAITSSSGSTYYADSVKGRFTISRDIAKNTVYLEMNSLKPEDTAVSYCNAYSTFGWYDYWGQGTQVTVSS”, the “polyreactivity (PSR sort gate)” value was “low polyreactivity”. In the case of “QVQLVESGGGLVQAGGSLRLSCAASGFTFYSYAMGWYRQAPGKERELVASISQSGGRTYYADSVKGRFTISRDNAKNTVYLQMNSLKPEDTAVYYCARQRSYGRSSYSYGYDYWGQGTQVTVSS”, the “polyreactivity (PSR sort gate)” value is reported as “high polyreactivity”. In the case of “QVQLVESGGCLVQAGGSLRLSCAASGLTFSRYAMGWYRQAPGKERELVASSSQGGGSTYYADSVKGRFTISRDNAKITVYFQMNSLIPEDTAVYYCAASWYYSLQRYGYWGQGTQETVSS”, the “polyreactivity (PSR sort gate)” value is reported as “high polyreactivity”. For “QVQLVESGGGLDQAGGSLRLSCAASGRIYYPYARGLYRQAPGKESELVAAISSGVSTNYADSVKGRFTISRDNAKTTVYLQMNSLKPEDTAVYYCARTYFRFASSYYPAVSHGYWGQGTQVTVSS”, the “polyreactivity (PSR sort gate)” value was “high polyreactivity”. In the case of “QDQLVESGGGLVQAGGSLRLSCAASGSTLRGYAMGWYRQAPGKEREFVASITSSGSRTYADSVKGRFTISRDNAKNTVYLQMNSLKPEDTAVYYCAANRWPLKGYTSRYWGYWYNYWGQGTQVTVSS”, the “polyreactivity (PSR sort gate)” value is reported as “high polyreactivity”. In the case of “QVQLVESGGGLVQAGGSLRLSCAASGRISSLYAMGWYRQAPGKERELVAAISGTGGSAYYADSVKGRFTISRDNAKNTVYLQLNSLKPEDTAVYYCNAVRRWRTSQFDYWGQGTQVTVSS”, the “polyreactivity (PSR sort gate)” value is reported as “low polyreactivity”. With “QVQLGESGGGLVQAGGSLRLSCAASGITFTHYVMGLYRQAPGKERELVAAISTSGGRTYYADSVKGRFTISRDHAKNSVYLQMNSLKPEDTAVYYCAAVSRAPGLRYDYWGQGTQVTVSS” the “polyreactivity (PSR sort gate)” value was “high polyreactivity”. In the case of “QVQLVESGGGLVQAGGSLRLSCAASGRTFAPYAMGWYRQAPGKERQLVAAISQRGGSTYYADSVKGRFTISRDNAKNTVYLQMNSLKPEDTAIYYCAATKYFYRLSSAFSFGTYGYWGQGTQVTVSS”, the “polyreactivity (PSR sort gate)” value is reported as “low polyreactivity”. For “QVQLVESGGGLVQAGGTLRLSCAASGSTFRRYAMGWYRHAPVKERELVAAISGRGGSTSYADSVKGRFTISRDNAKNTVYLQMNSLKPEDTAVYYCAADDKYFYPGNGYWGQGTQVTVSS”, the “polyreactivity (PSR sort gate)” value was “high polyreactivity”. For “QVQLVESGVGLVQAGGSLRLSCAASGSTFYAYAMGWNRQAPGKERELVAAISSDGTNYADSVKGRFTISRDNAKNTVYLQMNSLKPDDTAVYYCAADLLLYSSQDNDYWGQGTQVTVSS”, the “polyreactivity (PSR sort gate)” value was “low polyreactivity”. With “QVQLVESGAGLVQAGGSLRLSCAASGSTFNHYAMGWYRPAPGKDRELVAAITWSGDSTYYADSVKGRFTISRDNAKNTVYLQMNSLKPEDTAVYDCNTYRIFGYSPYYAGYDYWGQGTQVTVSS” the “polyreactivity (PSR sort gate)” value was “low polyreactivity”. With “QVQLVESGGGLVQAGGSLRLSCAASGITFGDYAMGWDRQAPGKERELVAAISTSGVRTYYADSVKGRFTISRDNAKNTVYLQMNSLKPEDTAVYYCNARDYSGFQTGASAAFDYWGQGTQVTVSS” the “polyreactivity (PSR sort gate)” value was “low polyreactivity”. For “QVQLVESGGGLVQAGGSLRLSCAASGRTFLYYAKGWYRQAPGKERELGAAISSGGSTNYADSVKGRFTISRDNAKNTVYLQMNSLKPEDTAVYYCNADYTSRDTSDVIYEYDYWGQGTQVTVSS”, the “polyreactivity (PSR sort gate)” value was “low polyreactivity”. With “QDQLVESGGGLVQAGASLRLSCAASGFIFVFNAMGWYRQAPGKERELVAAINGGDITNYADSVKGRFTISRDNAKNTVYLQMTSLKPEDTAVYYCAADGEDSLWTGYDYDYWGQGTQVTVSS” the “polyreactivity (PSR sort gate)” value was “low polyreactivity”. In the case of “QVQLVESGGGLVQAGGSLRLSCAASASTFAGYVMGWYRPAPGKERELVAAISVSGGSTDYADSVKGRFTISRDNAKNTVYLQMNSLKPEDTAVYYCAAVYVRNQWWRNYYWGQGTQVTVSS”, the “polyreactivity (PSR sort gate)” value is reported as “low polyreactivity”.
